Laboratory results taken from paper PMC10180154.
pKd: −log10 of the molar value.

Tests used:
[1] = molecular target: T1, LRP6 (recombinant human LRP-6, Fc chimera) (Homo sapiens) (UniProt O75581); assay: SPR; conditions: CE-LIF: incubation pH 8.0, 0.155% glutathione, 0.395% Tris-HCl; running buffer 50 mM borate pH 7.6, 20 kV, 25 C (CE-SELEX conditions). SPR: PBST pH 7.4, 0.05% …
T1 sequence: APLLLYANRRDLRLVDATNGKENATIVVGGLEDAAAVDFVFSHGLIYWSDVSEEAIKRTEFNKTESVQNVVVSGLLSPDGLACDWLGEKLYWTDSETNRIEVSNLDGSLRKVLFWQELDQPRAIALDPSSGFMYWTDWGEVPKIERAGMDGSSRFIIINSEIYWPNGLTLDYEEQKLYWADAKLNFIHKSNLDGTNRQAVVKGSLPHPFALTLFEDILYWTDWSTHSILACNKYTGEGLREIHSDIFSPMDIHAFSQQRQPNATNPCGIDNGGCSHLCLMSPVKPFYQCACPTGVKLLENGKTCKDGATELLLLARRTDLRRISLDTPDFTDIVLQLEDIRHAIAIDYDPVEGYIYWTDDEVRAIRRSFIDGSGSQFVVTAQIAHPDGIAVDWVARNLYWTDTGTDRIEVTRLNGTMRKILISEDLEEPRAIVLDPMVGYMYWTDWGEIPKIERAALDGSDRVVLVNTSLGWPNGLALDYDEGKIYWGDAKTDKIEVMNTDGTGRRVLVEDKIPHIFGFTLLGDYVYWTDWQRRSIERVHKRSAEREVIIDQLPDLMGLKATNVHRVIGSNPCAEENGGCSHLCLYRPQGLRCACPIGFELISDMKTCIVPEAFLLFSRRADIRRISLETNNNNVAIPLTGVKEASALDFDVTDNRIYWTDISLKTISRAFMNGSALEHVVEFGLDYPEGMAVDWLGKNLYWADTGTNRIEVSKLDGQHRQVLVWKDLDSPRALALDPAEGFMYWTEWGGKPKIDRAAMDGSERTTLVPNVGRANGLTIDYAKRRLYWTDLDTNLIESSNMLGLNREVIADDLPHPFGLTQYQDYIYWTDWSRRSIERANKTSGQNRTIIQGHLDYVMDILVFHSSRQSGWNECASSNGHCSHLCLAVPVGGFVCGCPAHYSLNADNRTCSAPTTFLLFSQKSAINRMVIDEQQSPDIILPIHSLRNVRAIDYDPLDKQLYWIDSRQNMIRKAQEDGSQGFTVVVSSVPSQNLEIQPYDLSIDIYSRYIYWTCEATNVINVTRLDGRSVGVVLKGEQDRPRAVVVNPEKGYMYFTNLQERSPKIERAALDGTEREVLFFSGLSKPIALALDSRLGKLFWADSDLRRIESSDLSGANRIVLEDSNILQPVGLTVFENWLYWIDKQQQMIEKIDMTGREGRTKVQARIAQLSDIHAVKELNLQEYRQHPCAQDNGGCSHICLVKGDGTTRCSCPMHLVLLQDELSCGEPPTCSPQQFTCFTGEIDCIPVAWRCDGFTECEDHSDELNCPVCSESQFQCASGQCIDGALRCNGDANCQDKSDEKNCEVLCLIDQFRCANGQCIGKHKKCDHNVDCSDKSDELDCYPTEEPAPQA

[2] = molecular target: T1, LRP6 (recombinant human LRP-6, Fc chimera) (Homo sapiens); assay: CE-LIF (NECEEM); conditions: CE-LIF: incubation pH 8.0, 0.155% glutathione, 0.395% Tris-HCl; running buffer 50 mM borate pH 7.6, 20 kV, 25 C (CE-SELEX conditions). SPR: PBST pH 7.4, 0.05% …

| Sequence | pKd [1] | pKd [2] |
| --- | --- | --- |
| AGCAGCACAGAGGTCAGATGGCCACATTAGTCTCACCACTACCTGCGTACCTACCGCCGCCCTATGCGTGCTACCGTGAA [AptLRP6-A2] | 6.76 | 5.89 |
| AGCAGCACAGAGGTCAGATGCGACTTGCCTATCGGCATGACACAATCTTTTGGAGCGTAACCTATGCGTGCTACCGTGAA [AptLRP6-A4] | 7.29 | 6.18 |
| AGCAGCACAGAGGTCAGATGGCAGCTAAGCAGGCGGCTCACAAAACCATTCGCATGCGGCCCTATGCGTGCTACCGTGAA [AptLRP6-A3] | 7.59 | 6.98 |
| AGCAGCACAGAGGTCAGATGCCGCAGGCAGCTGCCATTAGTCTCTATCCGTGACGGTATGCCTATGCGTGCTACCGTGAA [AptLRP6-A1] | 7.87 | 6.93 |
